Assay results taken from PMC6988801, “Characterization of a Dimeric Arginase From Zymomonas mobilis ZM4” (Frontiers in Microbiology, 2019).

Tests used:
zmARG = molecular target: T1, zmARG (Zymomonas mobilis, UniProt Q5NQE9); test: arginase activity assay kit, urea colorimetric at […] nm; type: biochemical; conditions: read-out: % inhibition at 5 mM
T1 construct: gene ZMO0432; full length Met1-Lys290; E. coli BL21(DE3) Star, pSKB3, N-terminal His6 with TEV site (25 extra residues); GH left after cleavage; EDTA-dialysed; dimer 64 kDa

purified protein = substrate: N=C(N)NCCC[C@H](N)C(=O)O; test: purified protein; type: biochemical, Zymomonas mobilis; conditions: Mn-dependent enzyme; metal, pH and temperature of the kinetic run not given
[1] = molecular target: the molecule itself; test: AF4-MALS; asymmetrical flow field-flow fractionation with multi-angle light scattering; Eclipse DUALTEC AF4, DAWN Heleos II 18-angle MALS; Zimm model

Q: For `N[C@@H](CCCCB(O)O)C(=O)O` [ABH, 2(S)-amino-6-boronohexanoic acid], which inhibition at 5000 µM (zmARG) is on record?
A: ~95%

B1: zmARG (Zymomonas mobilis subsp. mobilis ZM4 = ATCC 31821) (protein)
chain: MSSINKPLRLIFPQWQGGDNPPYYLGSQLLAWLSPDPKGAVEEVPVPKPTGEPLQEENGIVGRSILIDQLSEARQLIEKHTPDSLVVLGGDCLVSLAPFSWLLEKYKDKLGILWIDSHPDVQTPKEYKNAHAHVLGELMGNGDSDFTRTVKHPVSPQKIMIAGIHDPLPYEANFISEHKIQTCSPEQVRSGAQPVLDWIKNEKIEYLAIHIDLDVLDPHNFRSVLFAKPGRGQHDFGDVAEGKLNIPDVVKLANQAASISKAVGLTIAEHLPWDALNLKNMLEELPLIGK
notes: full length Met1-Lys290; E. coli BL21(DE3) Star, pSKB3, N-terminal His6 with TEV site (25 extra residues); GH left after cleavage; EDTA-dialysed; dimer 64 kDa
Q: Which Km (purified protein) does the source give for B1 here?
A: 6.8 mM

Q: What about the kcat (purified protein) of the same molecule?
A: 302 s^–1

B2: arginase from Zymomonas mobilis ZM4 (zmARG) (enzyme, Zymomonas mobilis subsp. mobilis ZM4)
chain: GHMSSINKPLRLIFPQWQGGDNPPYYLGSQLLAWLSPDPKGAVEEVPVPKPTGEPLQEENGIVGRSILIDQLSEARQLIEKHTPDSLVVLGGDCLVSLAPFSWLLEKYKDKLGILWIDSHPDVQTPKEYKNAHAHVLGELMGNGDSDFTRTVKHPVSPQKIMIAGIHDPLPYEANFISEHKIQTCSPEQVRSGAQPVLDWIKNEKIEYLAIHIDLDVLDPHNFRSVLFAKPGRGQHDFGDVAEGKLNIPDVVKLANQAASISKAVGLTIAEHLPWDALNLKNMLEELPLIGK
notes: two additional amino acids left at the N-terminus after TEV cleavage of the vector-encoded His6 tag; arginase zmARG, product of the ZMO0432 gene of Zymomonas mobilis subsp. mobilis ZM4, Met1-Lys290, amplified from genomic DNA; Two zinc ions are modelled in the active site of each subunit in the crystal; A Se-Met substituted form (made in B834 (DE3)) was used for phasing only; also called ZMO0432 …
Q: With B2 as the molecule, how does the “stoichiometry N” value [1] read?
A: 2
